Assay [1] addresses T1, HLA-B*07:02 (Homo sapiens, UniProt P01889). As to the kind of experiment: Competitive peptide binding fluorescence polarization assay. Conditions: peptide-MHC binding; strong binding affinity indicated by log[IC50]<3.7 (FIG. 6A). The method, then:
Experiments were also conducted to examine peptide-MHC binding.
(In general: Fluorescence polarisation rises when a labelled molecule tumbles more slowly, as on binding a larger partner.)

Assay [2] addresses T1, HLA-B*07:02. As to the kind of experiment: HLA class I immunoprecipitation peptide elution and tandem Mass Spec (MS/MS), monoallelic K562 RAS TMG cell lines. Format: cell-based. Set-up: expressed in transfected cells; host or cells: K562, lentiviral HLA construct plus RAS tandem minigene construct. Conditions: B*07:02-restricted; antigen processing/presentation. From the text: Additional antigen processing and presentation studies were done using mass spectrometry. First, monoallelic K562 cell lines were created to express specific HLA types (FIG. 7A). Further, lentiviral constructs expressing various wt RAS and mRAS peptides were generated (FIG. 7E). Monoallelic cell lines that express specific HLA types and the various RAS and mRAS peptides were then created. The expression of HLA class I and HLA-specific expression of RAS TMG cells lines were verified by FACS (FIG. 7C and FIG. 7D).
Further, novel epitopes are identified for HLA-B*07:02.

Assay [3] addresses HLA-A*02:01 (Homo sapiens, UniProt P04439, D140Y/D185E/D98H/E176V/E277Q/G131W/G231S/I119V/I121R/I166T/I218V/L300P/L318F/N151K/N90K/P208A/P217A/Q86G/Q94H/R138H/R169H/T345S). Conditions: peptide-MHC binding; strong binding affinity indicated by log[IC50]<3.7 (FIG. 6A). The method, then: Experiments were also conducted to examine peptide-MHC binding. The assay was used to measure the affinity of the various mRAS peptide sequences to HLA class I alleles of interest, summarized in the table of FIG. 5. Experiments were also done to investigate peptide stability by the scintillation proximity assay. The notation for the mutant RAS peptides depicted in FIG. 6A and FIG. 6B are as follows: For the A*02:01 panels, C-10=KLV_C; D-10=KLV_D; R-10=KLV_R; and V-10=KLV_V. […] For the B*07:02 panel, C-10=GA_C; D-10=GA_D; R-10=GA_R; V-10=GA V.

The test system of assay [4] is alternatively mutated RAS epitopes. Put plainly: Jurkat Reporter assay of TCR specificity and cross-reactivity. Conditions: Jurkat Reporter cells; HLA-B*07:02-restricted TCR. The format is cell-based. The procedure: (§1) Further experiments were conducted to characterize TCR896 expression and function. TCR896 expression was validated by peptide-MHC multimer staining of lentiviral-transduced Jurkat Reporter cells, as shown in FIG. 28A. FIG. 28B depicts the results of experiments assessing TCR896 avidity by Jurkat Reporter cells. Experiments were conducted assessing TCR specificity and cross-reactivity to alternative mutant RAS epitopes by Jurkat Reporter assay. […] FIG. 28D depicts TCR activation of Jurkat Reporter cells following coculture with A*03:01 positive RAS G12V tumor cell lines.
(§2) Further experiments were done to characterize TCR847 expression and function. TCR847 expression was validated by peptide-MHC multimer staining of lentiviral-transduced Jurkat Reporter cells, as shown in FIG. 29A. FIG. 29B depicts the results of experiments assessing TCR specificity and cross-reactivity to alternative mutant RAS epitopes by Jurkat Reporter assay.
(§3) Further experiments were conducted to characterize TCR864 expression and function. TCR864 expression was validated by peptide-MHC multimer staining of lentiviral-transduced Jurkat Reporter cells, as shown in FIG. 30A. FIG. 30B depicts the results of experiments assessing TCR864 avidity by Jurkat Reporter cells. Experiments were conducted to examine TCR864 specificity and cross-reactivity to alternative mutant RAS epitopes by Jurkat Reporter assay. […] The expression of TCR864 on primary CD8+ T cells is depicted in FIG. 30D.

Assay [5] deals with RAS G12R (GA_R) (Homo sapiens, UniProt P01116+P01889, G12R). The assay is described as above. The note with it: Jurkat Reporter cells. Format: cell-based. The procedure: as §2, §3
The subject of assay [6] is wildtype RAS epitope. Described as above. The format is cell-based. Conditions: Jurkat Reporter cells; HLA-B*07:02-restricted TCR. The procedure:
The validation of TCR831 expression by peptide-MHC multimer staining of lentiviral-transduced Jurkat Reporter cells is shown in FIG. 25A. Experiments were conducted to examine TCR831 avidity by Jurkat Reporter cells (FIG. 25B). Experiments were also conducted to assess TCR831 specificity and cross-reactivity to alternative mutant RAS epitopes by Jurkat Reporter assay. […] depicts TCR activation of Jurkat Reporter cells following coculture with A*11:01 positive RAS G12V tumor cell lines. FIG. 25E depicts the expression of TCR831 on primary CD8+ T cells. […] Cell line coloring corresponds to that in FIG. 25D.
Experiments were also conducted to further characterize the expression and function of TCR833. The validation of TCR833 expression by peptide-MHC multimer staining of lentiviral-transduced Jurkat Reporter cells is shown in FIG. 26A. FIG. 26B depicts the results of experiments assessing TCR833 avidity by Jurkat Reporter cells. Experiments were also conducted to assess TCR833 specificity and cross-reactivity to alternative mutant RAS epitopes by Jurkat Reporter assay. […] FIG. 26D depicts TCR833 activation of Jurkat Reporter cells following coculture with A*11:01 positive RAS G12V tumor cell lines.
Further experiments were conducted to characterize TCR897 expression and function. TCR897 expression was validated by peptide-MHC multimer staining of lentiviral-transduced Jurkat Reporter cells, as shown in FIG. 27A. FIG. 27B depicts the results of experiments assessing TCR897 avidity by Jurkat Reporter cells. Experiments were conducted to assess TCR897 specificity and cross-reactivity to alternative mutant RAS epitopes by Jurkat Reporter assay.
as §1, §2, §3

Assay [7] deals with K562-B*07:02 cells. As to the kind of experiment: 4-hr 51Cr assay. The note with it: wildtype. The format is cell-based. The method, then:
as §3

The source of these data is US12533409B2, “Compositions and methods for targeting mutant RAS” (The Trustees of the University of Pennsylvania, priority 2019, dated 2026).

Regarding “GARGVGKSAL (GA_R) [mRAS peptide, G12R, HLA-B*07:02]”, the “binding affinity of mRAS neoepitope for HLA-B*07:02” value in assay [1] is “high binding affinity”. Besides, the “detection of mRAS epitope by HLA class I immunoprecipitation peptide elution and MS/MS” value in assay [2] is reported as “detection”.

For KLVVVGAVGV [KLV_V], the “binding affinity of mRAS neoepitope for HLA-A*02:01” value in assay [3] is “high binding affinity”.

B1: TCR864: TCR construct, TRAV4 and TRBV7-2; fusion protein SEQ ID NO: 92; HLA-B*07:02 (protein)
chain: MRQVARVIVFLTLSTLSLAKTTQPISMDSYEGQEVNITCSHNNIATNDYITWYQQFPSQGPRFIIQGYKTKVTNEVASLFIPADRKSSTLSLPRVSLSDTAVYYCLVGDFNSNSGYALNFGKGTSLLVTPHIQNPDPAVYQLRDSKSSDKSVCLFTDFDSQTNVSQSKDSDVYITDKTVLDMRSMDFKSNSAVAWSNKSDFACANAFNNSIIPEDTFFPSPESSCDVKLVEKSFETDTNLNFQNLSVIGFRILLLKVAGFNLLMTLRLWSSGSGEGRGSLLTCGDVEENPGPMGTRLLFWVAFCLLGAYHTGAGVSQSPSNKVTEKGKDVELRCDPISGHTALYWYRQRLGQGLEFLIYFQGNSAPDKSGLPSDRFSAERTGESVSTLTIQRTQQEDSAVYLCASKVYGYTFGSGTRLTVVEDLNKVFPPEVAVFEPSEAEISHTQKATLVCLATGFFPDHVELSWWVNGKEVHSGVSTDPQPLKEQPALNDSRYCLSSRLRVSATFWQNPRNHFRCQVQFYGLSENDEWTQDRAKPVTQIVSAEAWGRADCGFTSVSYQQGVLSATILYEILLGKATLYAVLVSALVLMAMVKRKDF
modifications: TCR864 FUSION
notes: TCR construct, TRAV4 and TRBV7-2; HLA-B*07:02
For the molecule B1, the “reactivity to alternatively mutated RAS epitopes” value in assay [4] was “not wildtype or alternatively mutated”. The “specificity for RAS G12R (GA_R)” value in assay [5] is listed as “exhibits specificity”. Also, the reactivity to wildtype result in assay [6] is given as “not wildtype”. Besides, the “specific lysis, 4-hr 51Cr assay” value in assay [7] was “not wildtype”.
